Experimental data taken from US20200057047.

Tested on: HA-tagged AhR

Sequence of Myc-tagged PKCθ (Q04759 whole entry): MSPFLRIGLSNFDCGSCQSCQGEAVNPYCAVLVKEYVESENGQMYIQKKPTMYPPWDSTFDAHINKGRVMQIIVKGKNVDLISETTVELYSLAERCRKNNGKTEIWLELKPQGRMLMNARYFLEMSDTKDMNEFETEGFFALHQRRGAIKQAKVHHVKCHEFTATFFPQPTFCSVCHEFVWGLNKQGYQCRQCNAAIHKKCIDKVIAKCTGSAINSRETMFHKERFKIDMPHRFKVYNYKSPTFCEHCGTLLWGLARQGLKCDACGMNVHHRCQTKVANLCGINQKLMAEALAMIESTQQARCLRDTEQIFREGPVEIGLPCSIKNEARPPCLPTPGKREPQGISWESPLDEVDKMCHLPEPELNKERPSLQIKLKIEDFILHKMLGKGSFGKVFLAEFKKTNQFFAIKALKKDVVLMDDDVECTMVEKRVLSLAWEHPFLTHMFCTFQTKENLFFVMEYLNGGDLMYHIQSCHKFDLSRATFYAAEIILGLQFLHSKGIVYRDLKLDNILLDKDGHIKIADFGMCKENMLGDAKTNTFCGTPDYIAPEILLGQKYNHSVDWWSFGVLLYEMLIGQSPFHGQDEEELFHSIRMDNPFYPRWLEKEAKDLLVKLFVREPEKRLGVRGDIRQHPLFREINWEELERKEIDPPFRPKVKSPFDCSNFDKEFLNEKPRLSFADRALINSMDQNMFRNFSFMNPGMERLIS

Substance | in vitro kinase assay: AhR Ser-36 phosphorylation
Myc-tagged PKCθ | purified PKCθ indeed phosphorylated AhR at Ser-36
Myc-tagged PKCθ kinase-dead (K409W) mutant | purified kinase-dead (K409W) mutant of PKCθ did not
